Experimental data from publication PMC4283735.

Key:
[1] = molecular target: 30Kc19 C76A protein (Bombyx mori); test: native gel or EMSA
[2] = molecular target: recombinant 30Kc19 protein (Bombyx mori); test: native gel or EMSA
[3] = molecular target: recombinant 30Kc19 protein (Bombyx mori); test: native gel or EMSA; remark: listed apart in the source
[4] = molecular target: recombinant 30Kc19 protein (Bombyx mori); test: native gel or EMSA; remark: listed apart in the source
[5] = molecular target: recombinant 30Kc19 protein (Bombyx mori); test: non-reducing SDS-PAGE

stoichiometry N [1]	stoichiometry N [2]	stoichiometry N [3]	stoichiometry N [4]	stoichiometry N [5]	Substance
2	–	–	–	–	30Kc19 C76A protein (natural protein)
–	2	2	2	2	recombinant 30Kc19 protein (natural protein)
